From the nanobody polyreactivity screen of Harvey et al. (2022) come the findings set out here.

This series is described as follows: yeast display, Sf9 membrane polyspecificity reagent, FACS + sequencing; frameworks hold sequencing errors. The gist of the method: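 Genes from sorted yeast were amplified by colony PCR, read by MiSeq 2 × 250 sequencing and filtered on CDR length. These cells carried a synthetic nanobody library in Saccharomyces cerevisiae BJ5465 and were sorted by FACS into low and high (top ~1%) gates on anti-HA and streptavidin fluorescence. Polyreactivity is labelled according to the gate of origin.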
On to “QVQLVESGGGLVQAGGSLRLSCAASGSTSCIYAMGCYRQAPGKERELVAAISGSGVSTYYADSVKGRFTISRDNAKNTVYLQMNSLKPEDTAVYYCAAGYYGNGVFEYDYWGQGTQVTVSS”, for which the “polyreactivity (PSR sort gate)” value is listed as “low polyreactivity”. Consider “QVQLVESGGGLVQAGGSLRLSCAASGSTSCSNAMGWSRQAPGKERELVAAITTGASTYYADSVKGRFTISRDNAKNTVYLQMNSLKPEDTAVYYCAADPWVLWSYYYWGQGTQVTVSS”, for which the “polyreactivity (PSR sort gate)” value is on record as “low polyreactivity”. For “QVQLVESGGGLVQAGGSLRLSCAASGSTSDINAMGWYRQAPGKERELVAVITDSSNTDYADSVKGRFTISRDNAKNTVYLQMNSLKPEDTAVYYCAADRDEPDPYDYWGQGTQVTVSS” the value was “low polyreactivity”; for “QVQLVESGGGLVQAGGSLRLSCAASGSTSGIYAMGWYRQAPGKERELVAAIDTSGGSTYADSVKGRFTISRDNAKNTVYLQMNSLKPEDTAVYYCAKPFSSNSWSHGYWGQGTQVTVSS”, “low polyreactivity”.

Turning to “QVQLVESGGGLVQAGGSLRLSCAASGSTSGIYAMGWYRQAPGKERELVARINSGGSTYYADSVKGRFTISRDNAKNTVYLQMNSLKPEDTAVYYCNRVPNKYGRPIDSRWRGDYWGQGTQVTVSS”, the “polyreactivity (PSR sort gate)” value is given as “low polyreactivity”. The same measure for “QVQLVESGGGLVQAGGSLRLSCAASGSTSGKNAMGWYRQAPGKERELVAVITYSGSRTYYADSVKGRFTISRDNAKNTVYLQMNSLKPEDTAVYYCAAVGGGVSFRGNYWGQGTQVTVSS”: “high polyreactivity”. For “QVQLVESGGGLVQAGGSLRLSCAASGSTSGRNVMGWYIQAPGKERELVAAISSRGGSTYYADSVKGRFTISRDNAKNTVYLQMNSLKPEDTAVYYCAARYGAYSGYDYWGQGTQVTVSS” the value was “high polyreactivity”; for “QVQLVESGGGLVQAGGSLRLSCAASGSTSHQYAMGWYRQAPGKERELVAAISSRAGSTYYADSVKGRFTISRDNAKNTVYLQMNSLKPEDTAFYYCAADADSWKWGYDYWGQGTQVTVSS”, “low polyreactivity”. The same measure for “QVQLVESGGGLVQAGGSLRLSCAASGSTSLINVMGWYRQAPGKERELVAAISSSDGSTYYADSVKGRFTISRDNAKNTVYLQMNSLKPEDTAVYYCNADYYGYYGLMGYWGQGTLVTVSS”: “low polyreactivity”; for “QVQLVESGGGLVQAGGSLRLSCAASGSTSLSYVMGWYRQAPGKERELVASITSSGGSTYYADSVKGRFTISRDNAKNTVYLQMNSLKPEDTAVYYCNARSYIDPFSPTSYYRYYWGQGTQVTVSS”: “high polyreactivity”; for “QVQLVESGGGLVQAGGSLRLSCAASGSTSMSYVKGWYRQAPGKERELVASITSSGGSTYYADSVKGLFTISRDNAKNTVYLQMNSLKPEDTAVYYCNARSYIYPFSPTSYYRYYWGQGTQVTVSS”: “high polyreactivity”.

With “QVQLVESGGGLVQAGGSLRLSCAASGSTSPAYAMGWYRQAPGKERELVAVITGSGASTYYADSVKGRFTISRDNAKNTVYLQMNSMKPEDTAVYYCAADVGFGVVFYDYWGQGTQVTVSS”, the “polyreactivity (PSR sort gate)” value is given as “low polyreactivity”. The same measure for “QVQLVESGGGLVQAGGSLRLSCAASGSTSPGYAMGWYRQAPGKERELVAAITWNGGSTYYADSVKGRFTISRDNAKNTVYLQMNSLKPEDTAVYYCNKLSGYGWRSYGYWGQGTQVTVSS”: “high polyreactivity”; for “QVQLVESGGGLVQAGGSLRLSCAASGSTSPRNAMGWYRQAPGKERELVAAISSGGRTNYADSVKGRFTISRDNAKNTVYLQMNSLKPEDTAVYYCAAEVQSTYWGQGTQVTVSS”: “low polyreactivity”. The same measure for “QVQLVESGGGLVQAGGSLRLSCAASGSTSQTYTMGWYRQAPGKERELVAAISLRGGRTYYADSVKGRFTISRDNAKNTVYLQMNSLKPEDTAVYYCNRDYRGPYYYWGQGTQVTVSS”: “high polyreactivity”; for “QVQLVESGGGLVQAGGSLRLSCAASGSTSSPNAMGRYRQAPGKEREFVAAISRSGGSTYYADSVKGRFTISRDNAKNTVYLQMNSLKPEETSVHYCAATVTVFYTRYYYWGQGTQVTVSS”: “high polyreactivity”; for “QVQLVESGGGLVQAGGSLRLSCAASGSTSSPYAMGWYRQAPGKERELVAAITSGGSTNYADSVKGRFTISRDNAKNTVYLEMNSLKPEDTAVYYCATRIYGWSFGSWYKYDYRGQGTQVTVSS”: “low polyreactivity”. The same measure for “QVQLVESGGGLVQAGGSLRLSCAASGSTSSVYTMGWYRPAPGKERELVASISIRGTRTYADSVKGRFTISRDNAKNTVYLQMNSLKPEDTAVYYCAARYPWYVYTIYGYWGQGTQVTVSS”: “high polyreactivity”; for “QVQLVESGGGLVQAGGSLRLSCAASGSTSSYYAMGWYRQAPGKERELVAAIRTSGRTYYADSVKGRFTISRDNAKNTVYLQMNSLKPEDTAVYYCNAVYVSPDYDSWGQGTQVTVSS”: “high polyreactivity”; for “QVQLVESGGGLVQAGGSLRLSCAASGSTSTDYAMGWYRQAPGKERELVAAISYGGGSTYYADSVKGRFTISRDNAKNTVYLQMNSLKPEDTAVYYCAAVARFPKYRYYSWGQGTQVTVSS”: “high polyreactivity”. For “QVQLVESGGGLVQAGGSLRLSCAASGSTSTQYAMGWYRQAPGKERELVAGITQSGGSTYYADSVKGRFTISRDNAKNTVYLQMNSLKPEDTAVYYCAAPPGYTGRYDYYYWGQGTQVTVSS”, the “polyreactivity (PSR sort gate)” value is recorded as “high polyreactivity”. For “QVQLVESGGGLVQAGGSLRLSCAASGSTSTYNAMGWYRQAPGKERELVAAITESGGSTYYADSVKGRFTISRDNAKNTVYLQMNSLKPEDTAVYYCAADLTYTYEFWGQGTQVTVSS” the value was “low polyreactivity”; for “QVQLVESGGGLVQAGGSLRLSCAASGSTSVDYTMGWSRQAPGKERELVAAIDYNGDSTYYADSVKGRFTISRDNAKITVYLQMNRLKPEDTAVYYCADDVWTLDPDEYDYWGQGTQVTVSS”, “low polyreactivity”. The same measure for “QVQLVESGGGLVQAGGSLRLSCAASGSTSWLNAMGWYRQATGKERELVAAISVNTGSTYYADSVKGRFTISRDNAKNTVYLQMNSLKPEDTAVYYCAARGRGHGTTPNDYWGQGTQVTVSS”: “high polyreactivity”.

In the case of “QVQLVESGGGLVQAGGSLRLSCAASGSTSYNAMGWYRQAPGKERELVAAISDGGGSTYYADSVKGRFTISRDNAKNTVYLQMNSLKPEDTAVYYCAADTITGDGYWAQGTQVTVSS”, the “polyreactivity (PSR sort gate)” value is listed as “low polyreactivity”. For “QVQLVESGGGLVQAGGSLRLSCAASGSTSYRYAMGWYRQAPGKERELVAAISSSGGSTYYADSVKGRFTISRDNAKNTVYLQMNSLKPEDTAVYYCAARFYSGPGGYTMYYWGQGTQVTVSS” the value was “high polyreactivity”; for “QVQLVESGGGLVQAGGSLRLSCAASGSTSYTNAMGWYRQAPGKERELVARITNDGSTTYADSVKGRFTISRDNAKNTVYLQMNSLKPEDTAVYYCARPYRFWRYYGMYYWGQGTQVTVSS”, “high polyreactivity”. The same measure for “QVQLVESGGGLVQAGGSLRLSCAASGSTSYWYAMGWYRQAPGKERELVAAISSDDSTHYADSVKGRFTISRDNAKNTVYLQMNSLKPEDTAVYYFNREHYLIRYDYWGQGTQVTVSS”: “low polyreactivity”; for “QVQLVESGGGLVQAGGSLRLSCAASGSTSYYYTMGWYRQAPGKERELVASISSSGTSTYYADSVKGRFTISRDNPKNTVYLQMNSLKPEDTAVYYCAATADNNTPSGYDYWGQGTQVTVSS”: “high polyreactivity”; for “QVQLVESGGGLVQAGGSLRLSCAASGSTVGHYAMGWYRQAPGKERELVAAISVSGGSTYYADSVKGRFTISRDTAKNTVYLQMNSLKPEDTAVYYCAREYAHLSFLSTSSDYWGQGTQVTVSS”: “low polyreactivity”. For “QVQLVESGGGLVQAGGSLRLSCAASGSTVHYMGWYRQAHGKESELVAGISWSGGSTYYADSVKGRFTISRDNAKKTVYLQINSLKPEDTAVYYCAADIKIRLYTTGDYWGQGTQVTVSS” the value was “low polyreactivity”. Turning to “QVQLVESGGGLVQAGGSLRLSCAASGSTVHYMGWYRQAPGKERELVAGISWSGGSTYYADSVKGRFTISRDNAKNTVYLQMNSLKPEDTAVYYCAADIKIRLYTTGDYWGQGSQVTVSS”, the “polyreactivity (PSR sort gate)” value is on record as “low polyreactivity”. The same measure for “QVQLVESGGGLVQAGGSLRLSCAASGSTVWFYAMGWYRQAPGKERELVAVISNSGSTYYADSVKGRFTISRDNAKNTVYLQMNSLKPEDTAVYYCNKDGGGDSYWYDYWGQGTQVTVSS”: “low polyreactivity”; for “QVQLVESGGGLVQAGGSLRLSCAASGSTYAFYAMGWYRQAPGKERELVAAITSGGSTKYADSVKGRFTISRDNAKNTVYLQMNSLKPEDTAFYYCAARSRWSKLFRYDYWGQGTQVTVSS”: “high polyreactivity”; for “QVQLVESGGGLVQAGGSLRLSCAASGSTYATYAMGWYRQAPGKERELVAVITRGGRTYYADSVKGRFTISRDNAKNTVYLQMNSLKPEDTAVYYCAARTLWYVIFTLHDYNYWGQGTQVTVSS”: “high polyreactivity”.

Regarding “QVQLVESGGGLVQAGGSLRLSCAASGSTYDYNAMGWYIQAPGKERELDAAINSGASTYYGDSVKGRFTISRDNEKNSVYLQMNSMKPEDTAVYYCAKDYPYIGDYWGQCTQVTVSS”, the “polyreactivity (PSR sort gate)” value was “low polyreactivity”.

Turning to “QVQLVESGGGLVQAGGSLRLSCAASGSTYGGYTMGWYRPAPGKVWELVAAIRLSGVSTYYADSVKGRFTISRDNAKNTVYLQMNSLKPEDTAVYYCAARGWYRYGSVYYIGDYWGQGTQVTVSS”, the “polyreactivity (PSR sort gate)” value is “high polyreactivity”. The same measure for “QVQLVESGGGLVQAGGSLRLSCAASGSTYISYAMGWYRQAPGKERELVAAITVSGGRTYYADSVKGRFTISRDNAKNTVYLQMNSLKPEDTAVYYCARGYARSRRWRFDYWGQGTQVTVSS”: “high polyreactivity”; for “QVQLVESGGGLVQAGGSLRLSCAASGSTYKFYAMGWYRQATGKERELVAAISGSSGSTYYADSVKGRFTISRDNAKNTVYLQMNSLKPEDTAVYYWNTQYSRYYTRYSAYDYWGQGTQVTVSS”: “low polyreactivity”. The same measure for “QVQLVESGGGLVQAGGSLRLSCAASGSTYKGYAMGWYRQAPGKERELVAAISSSGGGTYYADSVKGRFTISRDNAKNTVYLQMNSLKPEDTAVYYCAATYYRGNYRTHYDYWGQGTQVTVSS”: “high polyreactivity”; for “QVQLVESGGGLVQAGGSLRLSCAASGSTYLYAIRWYRQAPGKERELVAAISWSGGSTYYADSVKGRFTISRDNAKNTVYLQMNSLKPEDTAVYYCNAYTYPFDWGQGTQVTVSS”: “high polyreactivity”.
